From publication doi:10.1101/2024.03.29.587371 (bioRxiv, 2024)
No end group written: not given here. SUMO = small ubiquitin-like modifier

Tests used:
[1] = target: dansylated CaM7 (Arabidopsis thaliana, UniProt P59220 1-149, dansyl (labelled with dansyl chloride; sites not stated)); experiment: other fluorescence titration
[2] = target: the molecule itself; experiment: SEC

Binder	Kd [1]	stoichiometry N [2]
{SUMO}-IKKCAAVTETVLAAVYKALN (domain or fragment, not fully specified) [SUMO-AtFBA5 CaMBD (residues 194-213)]	290 ± 130 nM	
SUMO-AtFBA5 (Arabidopsis fructose bisphosphate aldolase 5 with N-terminal His-SUMO tag) (enzyme, Arabidopsis thaliana, UniProt O65581 1-358, looked up) MSAFVGKYADELIKTAKYIATPGKGILAADESTGTIGKRFASINVENIESNRQALRELLFTSPGTFPCLSGVILFEETLYQKTTDGKPFVELLMENGVIPGIKVDKGVVDLAGTNGETTTQGLDSLGARCQEYYKAGARFAKWRAVLKIGATEPSELSIQENAKGLARYAIICQENGLVPIVEPEVLTDGSHDIKKCAAVTETVLAAVYKALNDHHVLLEGTLLKPNMVTPGSDSPKVAPEVIAEYTVTALRRTVPPAVPGIVFLSGGQSEEEATLNLNAMNKLDVLKPWTLTFSFGRALQQSTLKAWAGKTENVAKAQATFLTRCKGNSDATLGKYTGGASGDSAASESLYEEGYKY	190 nM	4
SUMO-AtFBA4 (Arabidopsis fructose bisphosphate aldolase 4 with N-terminal His-SUMO tag) (enzyme, Arabidopsis thaliana, UniProt F4KGQ0 1-393, looked up) MSCFKSKFAGKSYFRRTFHSSIIQFHPQLSILIWHRRYSIIRTYELIANAAYIGTPGKGILAADESTGTIGKRFVSINVENVESNRRALRELLFTTPGALQYISGIILFEETLYQKTASGKLFVDVMKEAGVLPGIKVDKGTVELAGTNGETTTTGLDGLGDRCKKYYEAGARFAKWRAVLKIGNNEPSELAIHENAYGLARYAVICQENGLVPIVEPEILVDGSHDIEKCAYVTERVLAACYKALSDHHVILEGTLLKPNMVTPGSDSGSKVKPEVIAKHTVRALQRTVPAAVPAVVFLSGGQSEEEATVNLNAINQLKGKKPWSLTFSYGRALQQSTLKAWGGKEENVDKAQKAFLARAKANSEATLGGYKGDAQLGEGASESLHVKDYKY		4
